Test results: publication PMC9896449
pKd: −log10 of the molar value.

Experiments:
[1] = target: BiShAb0201 (ShAb02 VNAR - (GGGGS)5 - ShAb01 VNAR - human IgG1 Fc) (nurse shark (Ginglymostoma cirratum)); test: BLI
[2] = target: ShAb01H02K (knob-in-hole heterodimer of ShAb01-Fc and ShAb02-Fc) (nurse shark (Ginglymostoma cirratum)); test: BLI

“SARS-CoV-2 WA-1 spike receptor binding domain (RBD) (from UniProt P0DTC2 331-527) (domain or fragment)” showed a pKd [1] of 8.97, a koff [1] of 2.82e-05 s⁻¹ and a kon [1] of 26300 M⁻¹ s⁻¹. The pKd [2] was 9.24, the koff [2] was 6.98e-05 s⁻¹ and the kon [2] was 122000 M⁻¹ s⁻¹.
